Test: VLP assembly induced by NaCl, quantified by size-exclusion chromatography
Type: physicochemical
Procedure: Improved VLP purification method. HepBc proteins were expressed using standard cell-free protein synthesis reactions as described above. The improved purification strategy first used Sephadex G25 columns to exchange the samples into a 50 mM Tris, 25 mM Imidazole, 0.1% Tween-20, pH 7.4 buffer solution. Insolubles were removed using centrifugation at 10 k×g for 15 min before loading the soluble fraction onto the Ni-NTA column. After loading, the Ni-NTA column was washed with 4 column volumes (CV) of 50 mM Tris, 25 mM Imidazole, 0.1% Tween-20, pH 7.4 and then eluted with 50 mM Tris, 250 mM Imidazole, 0.1% Tween-20, pH 7.4 (5CV total). […] Assembled VLPs were quantified and purified by applying 200 μL of the samples to 2.2 mL Sepharose 6 Fast Flow size-exclusion chromatographic resin, eluting 24×150 μL fractions. Protein concentration in each fraction was determined by measuring the radioactivity using liquid scintillation counting. […]
VLP purification method. […] Assembled VLPs were quantified and purified by applying 200 μL of the samples to 2.2 mL Sepharose 6 Fast Flow size-exclusion column, applying the assembly buffer, and collecting 24×150 […]. Protein concentration in each fraction was determined by measuring the radioactivity using liquid scintillation counting. […]

Molecule: wild-type: Wild-type truncated Hepatitis B core protein HBc149, SEQ ID NO: 1
- NaCl concentration (ionic strength) required for VLP assembly: 0.5 M

B1: HP spike transplant: HepBc with HP series of amino acid changes in the spike region; HBc(HP) is SEQ ID NO: 3 (protein)
chain: MDIDPYKEFGATVELLSFLPSDFFPSVRCLLDTAAALYRDALESPEHCSPHHTALRQAVSCWREVTDFGDWVGNNMQDQAARDLVVNYVNANIGLKIRQLLWFHISCLTFGRETVLEYLVSFGVWICTPPAYRPPNAPILSTLPETTVV
- NaCl concentration (ionic strength) required for VLP assembly: 1.5 M

— patent publication US11261216B2, “Engineered hepatitis B core polypeptide” (priority 2018, dated 2022)
